# Reference: PMC12261273, “Refinement and Truncation of DNA Aptamers Based on Molecular Dynamics Simulations: Computational Protocol and Experimental Validation”
# Key:
# [1] = system: 33-mer immunodominant gluten (gliadin) peptide; assay: SPR; details: RT (electrochemistry), pH 7.4, PSA-1, B4 and truncations: 1x PBS (10 mM phosphate, 154 mM NaCl), 24nt variants: 10 mM Tris-HCl, 150 mM NaCl, 5 mM KCl
# [2] = system: 33-mer immunodominant gluten (gliadin) peptide; assay: chronoamperometry; details: RT (electrochemistry), pH 7.4, PSA-1, B4 and truncations: 1x PBS (10 mM phosphate, 154 mM NaCl), 24nt variants: 10 mM Tris-HCl, 150 mM NaCl, 5 mM KCl
# [3] = system: collagen XI 10-mer peptide (non-helical C-telopeptide fragment); assay: chronoamperometry (magnetic beads); details: RT (electrochemistry), pH 7.4, PSA-1, B4 and truncations: 1x PBS (10 mM phosphate, 154 mM NaCl), 24nt variants: 10 mM Tris-HCl, 150 mM NaCl, 5 mM KCl
# [4] = target: T1, prostate specific antigen (PSA) (human, UniProt P07288 25-261); assay: chronoamperometry; 5 mM MgCl2; RT (electrochemistry), pH 7.4; PSA-1, B4 and truncations: 1x PBS (10 mM phosphate, 154 mM NaCl); 24nt variants: 10 mM Tris-HCl, 150 mM NaCl, 5 mM KCl, 5 mM MgCl2; Gli1 series: 50 mM Tris-HCl, 250 mM NaCl, 5 mM MgCl2; details: protein: native; label: 5' 6FAM; hairpin
# [5] = target: T1, prostate specific antigen (PSA); assay: SPR; 5 mM MgCl2; RT (electrochemistry), pH 7.4; PSA-1, B4 and truncations: 1x PBS (10 mM phosphate, 154 mM NaCl); 24nt variants: 10 mM Tris-HCl, 150 mM NaCl, 5 mM KCl, 5 mM MgCl2; Gli1 series: 50 mM Tris-HCl, 250 mM NaCl, 5 mM MgCl2; details: protein: native; label: 5' 6FAM; hairpin
# [6] = target: T1, prostate specific antigen (PSA); assay: SPR; RT (electrochemistry), pH 7.4; PSA-1, B4 and truncations: 1x PBS (10 mM phosphate, 154 mM NaCl); 24nt variants: 10 mM Tris-HCl, 150 mM NaCl, 5 mM KCl, 5 mM MgCl2; Gli1 series: 50 mM Tris-HCl, 250 mM NaCl, 5 mM MgCl2; details: protein: native; label: 5' 6FAM
# [7] = target: T1, prostate specific antigen (PSA); assay: chronoamperometry; RT (electrochemistry), pH 7.4; PSA-1, B4 and truncations: 1x PBS (10 mM phosphate, 154 mM NaCl); 24nt variants: 10 mM Tris-HCl, 150 mM NaCl, 5 mM KCl, 5 mM MgCl2; Gli1 series: 50 mM Tris-HCl, 250 mM NaCl, 5 mM MgCl2; details: protein: native; label: 5' 6FAM
# T1 sequence (P07288 25-261): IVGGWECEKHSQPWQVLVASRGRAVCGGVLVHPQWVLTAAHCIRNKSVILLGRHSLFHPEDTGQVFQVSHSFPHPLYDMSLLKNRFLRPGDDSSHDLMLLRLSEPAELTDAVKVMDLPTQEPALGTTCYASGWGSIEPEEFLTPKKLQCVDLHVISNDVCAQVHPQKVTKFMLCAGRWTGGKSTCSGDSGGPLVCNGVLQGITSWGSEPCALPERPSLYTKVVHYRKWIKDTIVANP
molecule,measurement,setting,value
CTAGGCGAAATATAGCTACAACTGTCTGAAGGCACCCAAT [Gli1],Kd,[1],155 nM
same,Kd,[2],136 nM
TTTTTATTCAGGGCACCTGGAACGACGCGTCGGCT [B4T(11-40)],Kd,[3],44 nM
TTTTTGACGCAAGAAATTCAGGGCACCTGGAACGACGCGTCGGCT [B4],Kd,[3],147 nM
CTAGGCGAAATATAGCTACAACTGTCTGA [Gli1T(1-29)],Kd,[1],71 nM
same,Kd,[2],86 nM
TTTTTAATTAAAGCTCGCCATCAAATAGCTTT (ssDNA) [5Ts-24nt-3Ts (deltaPSap4#5)],Kd,[4],152 ± 9 nM
same,Kd,[5],232 ± 4 nM
TTTTTGGACGGTTGCGCTATATTTAACCAAAAGTCTGGATTAACA (ssDNA) [PSA-1],Kd,[6],125 ± 21 nM
same,Kd,[7],348 ± 58 nM
TTTTTTATTTAACCAAAAGTCTGGATTAACA (ssDNA) [PSA-1T(15-40)],Kd,[6],130 ± 25 nM
same,Kd,[7],111 ± 9 nM
TTTTTAATTAAAGCTCGCCATCAAATAGC (ssDNA) [5Ts-24nt],Kd,[4],460 ± 64 nM
same,Kd,[5],545 ± 24 nM
